{"source": "patent US12385055B2", "about": "“Compositions and methods for production of salidroside, icariside D2, and precursors of salidroside and icariside D2” (Whitehead Institute for Biomedical Research, priority 2017, dated 2025)", "molecules": {"B1": {"name": "RrUGT2: R. rosea UGT with regio-specific T4GT activity, icariside D2-producing (protein, listed as Rhodiola rosea)", "chain": "MGSDSRPLRVFFFPFMAHGHLIPMVDIARLFSSQGVHSTIITTPLNANYISKTTSLSIKTIPFPAAEVGLPDGCENIDMLPSPDLFFKFFQAANLLQAPFENLLELERPDCLISDIFFPWSVDSAEKFNIPRLVFHGTSFFAMCAMESLKTHKPYKSVSTDSEPFLIPNLPDEIKMTKSQFTVDAWEDTEKGLGKLLADARASGLRSFGMIVNSFHELEPAYADYYKNVLNMKAWCVGPVSLYNRNDDEKIARGKKSAIDDHECLKWLEGKQPDSVVYVCFGSSASFPDEQLRDIALGLEESGVNFIWVIRRSSESGSEDYLPEGFEDRVKDRGLVIRGWAPQVLILDHPSVGGFVTHCGWNSALEGISAGLPMVTWPLFAEQFFNQKLITDVLKVGVEVGVQKWSRNGEDRVTKEKVEKAVRAVMVGEDAEERRGRARQLGKLAKKAVAKDGSSYIDLHNLLDELKLRRETLS"}, "B2": {"name": "RrUGT32: R. rosea UGT with regio-specific T8GT activity (protein, listed as Rhodiola rosea)", "chain": "MGSLGKKIQQKPHAICTPYPAQGHINPMLKLAKLLHHSGFYITFVHTTYNYNRLLKTHGSDSLSGLPDFQFETIPDGLPPSDAADVTQDIPALCKSTTETCLVPFKELLAKLHNKSMASPEEVPPVTCIVSDGCMSFTVDAAEEAGVPNVLLWTTSACGFLGYANYPKLIDRGIIPLKDESYFTNGYLDKTVDGIPGMKGIRLRDFPNFVCTTNPDEFMVKYAIQEITRAARADAVILNTFDALEHDFLDGLSNIYPKVLPIGPLQLPLNQIPESSPLHSICSSLWKDEPQCITWLNSQKPKSVVYVNYGSITVMTPQQMVEFAWGLANTKYPFLWIIRPDLVAGETAVLPPDFLEVTKGRSCLASWCPQEQVLSHTSIGGFLTHCGWNSMLESVVEGVPMVCWPFFAEQQTNCWAARTKWGIGMEIDNDVKRDKVQKMVTELMEGEKGKEMKRKGGEWKKLGAEAAGPNGSATLNFSRLINDVLLSKKKL"}, "B3": {"name": "RrUGT7: R. rosea UGT with regio-specific T4GT activity (protein, listed as Rhodiola rosea)", "chain": "MAENTHAHAIVVPFPVQGHIKPSLNLALKLASQGFTITFVTTHFTHQQISQAHKNSTNTNHDMFFQARNSSLDIRHVTVTDTFPLGFDRAGNQDQFWEGMLHVFPAHVDELVDQLMNSSKPRPTCLILDTFYNWGSKIANKFNLVHISFWTQSALSFTLFYHWELLKKNGHFGSPDNRTDVIDYIPGVQEIKPADLISYLQMSDTTTVAHRTCFTAFEDVRKADFILANTIQEFETDTISSIRFHQPFFYPIGPVFLTKSEQQASSALWSESDCEQWLSTKPKGSVLYASFGSYARVTRHDIAEIAYGLMQSEVNFIWVIRDDIVGAHETDFLPTEFINGIKLKDQGLLVSWCSQTEVLSNAAIGGFLTHCGWNSILESVWCEVPLLCFPIMTDQPSNRKLVVDDWRIGVNLSAAEEVSREEVSMKVRNLISGELGNELRVQIQKYKKLMENGIMEGGSSHSNWNKFIHDLQIFKK"}, "B4": {"name": "RrUGT29: R. rosea UGT with regio-specific T8GT activity, salidroside-producing (protein, listed as Rhodiola rosea)", "chain": "MGSLGKKIQQKPHAICTPYPAQGHINPMLKLAKLLHHSGFYITFVHTTYNYNRLLKTHGSDSLSGLPDFQFETIPDGLPPSDAADVTQDIPALCKSTTETCLVPFKELLAKLHNKSMASPEEVPPVTCIVSDGCMSFTVDAAEEAGVPNVLLWTTSACGFLGYANYPKLIDRGIIPLKDESYFTNGYLDKTVDGIPGMKGIRLRDFPNFVCTTNPDEFMVKYAIQEITRAARADAVILNTFDALEHDFLDGLSNIYPKVLPIGPLQLPLNQIPESSPLHSICSSLWKDEPQCITWLNSQKPKSVVYVNYGSITVMTPQQMVEFAWGLANTKYPFLWIIRPDLVAGETAVLPPDFLEVTKGRSCLASWCPQEQVLSHTSIGGFLTHCGWNSMLESVVEGVPMVCWPFFAEQQTNCWAARTKWGIGMEIDNDVKRDKVQKMVTELMEGEKGKEMKRKGGEWKKLGAEAAGPNGSATLNFSRLINDVLLSKKKIVVTT"}, "B5": {"name": "RrUGT17: R. rosea UGT with both T8GT and T4GT activities (protein, listed as Rhodiola rosea)", "chain": "MGSLPSTKSHAVLVPYPAQGHINPFMQLAKLLHSKGFHITFVNNDHNHRRLLRTKGHDFVQGLEGLRFEAVPDGLPPSDRDATQDVPKLTESIYNKSMNQPFSDLLQRLNSTPGSPPVTCVISDVAMFFAWDVADELGIPNVQFWTASACGLLGYLQYDELLRRAIVPFKDENFMTDGSLEALIDWIPGMPNMRLKDLPSFMRTTSPDDVLFNYLRTITTKALKSSALLLNTFDDFEHEVVEEMKKMQPNIFLGGPLNMLLRHTSKTEITSLTTSLWKEDTHCLEWLDKQEPESVVYINYGSVTIMSDHHLNEFAWGLANSKHPFLWIVRPDVVRGESGTLPKEFYDEIKDRGLITSWCPQPEVLKHPSVGVYLTHCGWNSITESVAGGVPLMCWPFFAEQQTNSRFACTVWGTGVEVNADVKREELAEQVMEMLEGKRGQELRKNAKEWRRKAEEATDIGGSAYADFDRFMEKVVQFSV"}, "B6": {"name": "RrUGT13: R. rosea UGT with regio-specific T4GT activity (protein, listed as Rhodiola rosea)", "chain": "MAEISLIFIPFPVISHLTPTIEIAKILLSRDHRLSITFLVIDIPQRDASLASLTTSIISDRLHFLDVVLPPNQHSQSSKPSGIAAIESAKPAVKKTISDLVVRSQSAASGPRIAGFVLDMFCTAMIDIATEFNLPSYIYYTCGSSFLSIVLHVQKLCDDDALDIADFKNSSVEFSLPEFSNLIPARLLPSMALDKDFSASFVGKARAFRKTKGILVNSLVELEPHAIESMKLDRSVPPIYSVGPVLNMNSNTAFIRQEQEKEIMEWLDQQPPASVVFLCFGSRGAFKPDQVKEIARGLESSGCRFLWALRQPSSSNVRFSPPTDYEDFSEVLPEGFLQRTYGVGKVIGWAPQTAVLDHPSVGGFVSHCGWNSILESLWFGVPIATWPLYAEQQMNAFEVVKEMKIGVEISLDYRLEMGGKQAEGSGIISGEQIERGIRDVMQEDSEVRKKVKLMMEKSREAVVEGGSSYNYIQNFISDLRTNIGL"}}}
{"system": "tyrosol", "experiment": "In vivo tyrosol glycosylation assay in yeast expressing Rr4HPAAS", "format": "cell-based", "conditions": "UGT on 2-micron TEF-promoter plasmid in S. cerevisiae BY4743 expressing Rr4HPAAS", "excerpt": "To facilitate functional assessment of a large number of UGT candidates, an in vivo tyrosol glycosylation assay in the yeast S. cerevisiae was devised. Initial iterations of the tyrosol-producing yeast strains were generated by transforming wild type S. cerevisiae BY4743 with separate 2-micron TEF-promoter expression plasmids containing Rr4HPAAS and Rr4HPAR1, respectively. It was later observed that yeast contains endogenous ADH activity sufficient to reduce 4-hydroxyphenylacetaladehyde produced by Rr4HPAAS to tyrosol. Therefore, the Rr4HPAR1-containing plasmid was omitted in the final tyrosol-producing strain (FIG. 18). Each of the 34 R. rosea UGT candidate genes, carried on the yeast 2-micron TEF-promoter expression plasmids, was transformed into the background strain expressing Rr4HPAAS. After auxotrophic selection, colonies were cultured, harvested and subjected to metabolic profiling by LC-HRAM-MS. […] The UGTs that contain T4GT activity appear to be phylogenetically diverse with representative enzymes falling into the D, G, E and K groups, while all of identified T8GTs cluster within the G group (FIG. 4A).\nCrown tissue and root tissue of a three-month-old R. rosea plant was harvested and stored at −80° C. before subsequent metabolomic analysis. Various transgene-carrying S. cerevisiae BY4743 strains and transiently transformed N. benthamiana plants were generated to test the activity of candidate genes involved in the tyrosol glycoside biosynthesis. 3 mL of saturated S. cerevisiae culture was used to inoculate 50 mL of synthetic minimal media (SD) in a shake flask. After 24 hours of shaking at 30° C., the culture was pelleted by centrifugation, washed with water, and stored at −80° C. before further processing. N. benthamiana leaf tissue was harvested 5 days after Agrobacterium infiltration and was stored at −80° C. before further processing. Frozen yeast or plant tissue was disrupted with a TissueLyser (Qiagen) using acid-washed metal beads in 50% methanol (500 μL per 100 mg fresh weight). The extracts were then analyzed by LC-HRAM-MS. Metabolite profiling was conducted on a QExactive benchtop orbitrap mass spectrometer equipped with an Ion Max source and a HESI II probe, which was coupled to a Dionex UltiMate 3000 UPLC system (Thermo Fisher Scientific). 2 μL of each sample was injected onto a 150×2.1 mm ZIC-pHILIC column (5 μm particle size, EMD Millipore). Solvent A was 20 mM ammonium carbonate, 0.1% ammonium hydroxide; solvent B was acetonitrile. The column oven and autosampler tray were held at 25° C. and 4° C., respectively. The chromatographic gradient was run at a flow rate of 0.15 mL/min as follows: 0-20 min, linear gradient from 80% to 20% solvent B; 20-20.5 min, linear gradient from 20% to 80% solvent B; 20.5-28 min, hold at 80% solvent B. The mass spectrometer was operated in full-scan, polarity-switching mode with the spray voltage set to 3.0 kV, the heated capillary held at 275° C., and the HESI probe held at 350° C. The sheath gas flow was set to 40 units, the auxiliary gas flow was set to 15 units, and the sweep gas flow was set to 1 unit. The MS data acquisition was performed in a range of 70-1000 m/z, with the resolution set at 70,000, the AGC target at 10 e6, and the maximum injection time at 20 msec. The raw data was converted to mzML format using MSConvert (Chambers et al., 2012), and analyzed using MetaboAnalyst (Xia and Wishart, 2016) and MZmine2 (Pluskal et al., 2010)."}
{"molecule": "B1", "tyrosol glycosylation activity (T8GT / T4GT)": "regio-specific T4GT activity"}
{"molecule": "B2", "tyrosol glycosylation activity (T8GT / T4GT)": "regio-specific T8GT activity"}
{"molecule": "B3", "tyrosol glycosylation activity (T8GT / T4GT)": "regio-specific T4GT activity"}
{"molecule": "B4", "tyrosol glycosylation activity (T8GT / T4GT)": "regio-specific T8GT activity"}
{"molecule": "B5", "tyrosol glycosylation activity (T8GT / T4GT)": "both T8GT and T4GT activities"}
{"molecule": "B6", "tyrosol glycosylation activity (T8GT / T4GT)": "regio-specific T4GT activity"}
